From article PMC4098843 (Nature communications, 2014) come the findings set out here.

This series concerns the molecule itself. Nature of the series: crystal structure.

For orientation: stoichiometry N means the number of molecules, sites or subunits per partner or assembly.

B1: AF2299, a CDP-alcohol phosphotransferase from Archaeoglobus fulgidus (enzyme, Archaeoglobus fulgidus DSM 4304, UniProt O27985 1-344, looked up)
chain: MRLAYVKNHEIYGEKLLGLTLRERIEKTLQRAGFDVRFFDELSLEEAEDYLIILEPVLILERDLLLEGRKILVSDGFTVGYFFGGDFRTVFDGNLQSSIEKYLSLNNLESYEIWAIKLSNDNLKTAEKLLLSSLIKAKRTGLKPAYYDGWIAREINRKVSLRISRLLADTSVTPNQITVFSFFLSLVGSALFLLNSYLTTLLAGVIIQLHSIIDGCDGEIARLKFMESKYGAWLDGVLDRYSDFIIVFSITYVLSASNPVYWIIGFLAAFASLMIAYTGDKFVAAYMRTYSPEGFAIPITRDFRLLIIFACSVVNLPSLALVIIALLGNFEALRRIVALRSYTN
With B1, the “stoichiometry N” value was found to be 2.
